# Measured values as given in patent US20240251767A1.
# Where two headings read alike, the source gives them in different places.
# Tests used:
# [1] = molecular target: SARS-Cov2 Spike Active Trimer SAT (R&D Systems; Catalog No. 10549-CV) (SARS-CoV2) (UniProt P0DTC2)
# [2] = molecular target: SARS-Cov2 Spike Active Trimer SAT (R&D Systems; Catalog No. 10549-CV) (SARS-CoV2) (UniProt P0DTC2); assay: ELISA, serially diluted purified Nb-Fc on SAT antigen
# [3] = molecular target: SARS-CoV-2 Spike (S) protein with an inactivated furin site on HEK293-Spike cells (293-SARS2-S-dfur, (SARS-CoV-2) (UniProt P0DTC2))
# [4] = molecular target: SARS-Cov2 Spike Active Trimer SAT (R&D Systems; Catalog No. 10549-CV) (SARS-CoV2) (UniProt P0DTC2); assay: SPR (Carterra)
# [5] = molecular target: SARS-Cov2 Spike Active Trimer SAT (R&D Systems; Catalog No. 10549-CV) (SARS-CoV2) (UniProt P0DTC2); remark: listed apart in the source
# [6] = molecular target: SARS-Cov2 Spike Active Trimer SAT (R&D Systems; Catalog No. 10549-CV) (SARS-CoV2) (UniProt P0DTC2); assay: SPR (Biacore)
substance,measurement,setting,value
human SAT Nb-Fc control VH-Ab-8 (HAb8-S) (Fc fusion),Kd,[1],19.8 nM
same,EC50,[2],0.018 nM
same,GMFI,[3],430
same,GMFI Ratio,[3],21.1
same,Kd,[4],37.3 nM
same,Response,[5],0.489
same,koff,[5],0.00294 s⁻¹
same,kon,[5],149000 M⁻¹ s⁻¹
same,Kd,[6],5.7 nM
